The target of assay [1] is T1, GAL4 activation domain fusion to HAB1 E203D (Arabidopsis thaliana (Mouse-ear cress), UniProt Q9CAJ0 4-511).
T1 construct: Mutant of the pACT-HAB1 template, which lacks the three N-terminal amino acids of HAB1
T1 sequence: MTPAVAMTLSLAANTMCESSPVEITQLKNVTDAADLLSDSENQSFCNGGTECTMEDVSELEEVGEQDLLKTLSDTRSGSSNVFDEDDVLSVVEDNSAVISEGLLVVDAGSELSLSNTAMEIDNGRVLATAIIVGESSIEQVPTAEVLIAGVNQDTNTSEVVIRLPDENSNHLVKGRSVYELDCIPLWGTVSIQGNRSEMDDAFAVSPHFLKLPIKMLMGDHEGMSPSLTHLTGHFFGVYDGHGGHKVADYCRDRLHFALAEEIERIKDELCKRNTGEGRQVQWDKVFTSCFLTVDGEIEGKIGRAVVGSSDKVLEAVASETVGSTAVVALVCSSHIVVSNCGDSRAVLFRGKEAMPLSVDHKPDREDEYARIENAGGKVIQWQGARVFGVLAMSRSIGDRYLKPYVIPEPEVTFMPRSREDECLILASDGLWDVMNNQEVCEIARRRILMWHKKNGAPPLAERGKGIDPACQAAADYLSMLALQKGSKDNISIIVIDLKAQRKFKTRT
Description: Y2H, beta-gal staining.

For assay [2], the target named is T2, GAL4 activation domain fusion to HAB1^V393R (Arabidopsis thaliana (Mouse-ear cress), UniProt Q9CAJ0 4-511).
T2 construct: Mutant of the pACT-HAB1 template, which lacks the three N-terminal amino acids of HAB1; Denoted HAB1^!
T2 sequence: T1 sequence with D200E, V390R
Description: Y2H, beta-gal staining.

Numbering of substitutions follows the chain as printed.

B1: GAL4 DNA binding domain fusion to PYR1 (pBD-PYR1), wild type (receptor)
chain: MKLLSSIEQACDICRLKKLKCSKEKPKCAKCLKNNWECRYSPKTKRSPLTRAHLTEVESRLERLEQLFLLIFPREDLDMILKMDSLQDIKALLTGLFVQDNVNKDAVTDRLASVETDMPLTLRQHRISATSSSEESSNKGQRQLTVSMPSELTPEERSELKNSIAEFHTYQLDPGSCSSLHAQRIHAPPELVWSIVRRFDKPQTYKHFIKSCSVEQNFEMRVGCTRDVIVISGLPANTSTERLDILDDERRVTGFSIIGGEHRLTNYKSVTTVHRFEKENRIWTVVLESYVVDMPEGNSEDDTRMFADTVVKLNLQKLATVAEAMARNSGDGSGSQVT
notes: Yeast two-hybrid bait expressed in S. cerevisiae; also called WT
As for B1, the binding result in assay [1] and in assay [2] was “no binding (tested: 10 µM ABA)” in each case.
